Assay results from patent publication US20240360203A1.
Like-named read-outs stand apart in the source and are kept apart here.

How the values were obtained:
Test in all cases: cell-based or functional assay
[1] = target: SARS-CoV-2 Delta Spike on pseudovirus (SARS-CoV-2) (UniProt P0DTC2)
[2] = target: SARS-CoV-2 BA.2.12.1 Spike on pseudovirus (SARS-CoV-2) (UniProt P0DTC2)
[3] = target: SARS-CoV-2 BA.1 Spike on pseudovirus (SARS-CoV-2) (UniProt P0DTC2)
[4] = target: SARS-CoV-2 BA.2 Spike on pseudovirus (SARS-CoV-2) (UniProt P0DTC2)
[5] = target: SARS-CoV-2 BA.4/5 Spike on pseudovirus (SARS-CoV-2) (UniProt P0DTC2)
[6] = target: SARS-CoV-2 Delta Spike on pseudovirus (SARS-CoV-2) (UniProt P0DTC2); remark: listed apart in the source
[7] = target: SARS-CoV-2 BA.2.12.1 Spike on pseudovirus (SARS-CoV-2) (UniProt P0DTC2); remark: listed apart in the source
[8] = target: SARS-CoV-2 BA.1 Spike on pseudovirus (SARS-CoV-2) (UniProt P0DTC2); remark: listed apart in the source
[9] = target: SARS-CoV-2 BA.2 Spike on pseudovirus (SARS-CoV-2) (UniProt P0DTC2); remark: listed apart in the source
[10] = target: SARS-CoV-2 BA.4/5 Spike on pseudovirus (SARS-CoV-2) (UniProt P0DTC2); remark: listed apart in the source
[11] = target: SARS-CoV-2 BA.4/5 Spike on pseudovirus (SARS-CoV-2) (UniProt P0DTC2); remark: listed apart in the source
[12] = target: SARS-CoV-2 BA.2 spike protein (SARS-CoV-2)

| Substance | % neutralization at 4.5 µg/ml, pseudovirus [1] [%] | % neutralization at 4.5 µg/ml, pseudovirus [2] [%] | % neutralization at 4.5 µg/ml, pseudovirus [3] [%] | % neutralization at 4.5 µg/ml, pseudovirus [4] [%] | % neutralization at 4.5 µg/ml, pseudovirus [5] [%] | IC50, pseudovirus neutralization [6] [µg/mL] | IC50, pseudovirus neutralization [7] [µg/mL] | IC50, pseudovirus neutralization [8] [µg/mL] | IC50, pseudovirus neutralization [9] [µg/mL] | IC50, pseudovirus neutralization [10] [µg/mL] | IC50, pseudovirus neutralization [1] [µg/mL] | IC50, pseudovirus neutralization [2] [µg/mL] | IC50, pseudovirus neutralization [4] [µg/mL] | IC50, pseudovirus neutralization [5] [µg/mL] | IC50, pseudovirus neutralization [11] [µg/mL] | pseudovirus neutralization EC50, Vero E6 [12] [µg/mL] |
| --- | --- | --- | --- | --- | --- | --- | --- | --- | --- | --- | --- | --- | --- | --- | --- | --- |
| AZD1061 (antibody) | 100 | 99.8 | 83.9 | 99.7 | 96.7 | 0.0059 | 0.0051 | 1.22 | 0.0058 | 0.0412 | – | – | – | – | – | – |
| AZD8895 (antibody) | 102 | 94.2 | 96.5 | 93.9 | 25.8 | 0.0005 | 0.415 | 1.16 | 0.608 | – | – | – | – | – | – | – |
| Sotrovimab VH/VL (human IgG1 molecule expressing the same variable regions of Sotrovimab) (antibody) | 101 | 76.9 | 99.4 | 73.1 | 60.5 | 0.0123 | 0.714 | 0.0633 | 0.393 | 0.666 | 0.065 | 1.2 | 0.704 | > 4.5 | 0.424 | – |
| Sotrovimab VH/VL-hamIgG2a (antibody) | – | – | – | – | – | – | – | – | – | – | – | – | – | – | – | 0.361 |
| Sotrovimab VH/VL-huIgG1 (antibody) | – | – | – | – | – | – | – | – | – | – | – | – | – | – | – | 0.862 |
